Reference: patent US20240024501A1 (BONUM THERAPEUTICS, published 2024)

T1: LRRC15-hFc (Sino Biologicals, 15786-H02H) (UniProt Q8TF66 22-538)
T1 construct: also called LRRC15-Fc
T1 sequence (looked up): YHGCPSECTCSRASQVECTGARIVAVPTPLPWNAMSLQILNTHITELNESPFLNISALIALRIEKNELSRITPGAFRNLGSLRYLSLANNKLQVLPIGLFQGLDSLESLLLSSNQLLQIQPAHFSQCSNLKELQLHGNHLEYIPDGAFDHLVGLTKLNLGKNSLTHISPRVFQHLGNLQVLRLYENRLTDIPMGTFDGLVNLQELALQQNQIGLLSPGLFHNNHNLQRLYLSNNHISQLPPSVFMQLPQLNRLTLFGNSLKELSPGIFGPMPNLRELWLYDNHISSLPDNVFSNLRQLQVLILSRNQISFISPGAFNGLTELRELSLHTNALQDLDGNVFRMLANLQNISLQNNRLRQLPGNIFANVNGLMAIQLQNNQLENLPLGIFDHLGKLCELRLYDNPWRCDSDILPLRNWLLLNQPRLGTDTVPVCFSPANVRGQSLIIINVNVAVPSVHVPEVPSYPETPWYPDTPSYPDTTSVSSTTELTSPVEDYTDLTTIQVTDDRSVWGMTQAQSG


Tests used:
PD-L1 (Eu-labeled) = molecular target: T2, PD-L1 (Eu-labeled) (UniProt Q9NZQ7 19-238, limits assumed, Eu label); experiment: HTRF
T2 construct: also called Eu-labeled PD-L1

human IL-2 [1] = molecular target: T3, human IL-2 (human, UniProt P60568 21-153, biotin label in the IL2RB blocking assay); experiment: HTRF, IL-2:Fc-IL2RB
T3 construct: also called biotin-labeled IL-2 (Acro Biosystems IL2-H82E4)
T3 sequence (P60568 21-153 limits assumed): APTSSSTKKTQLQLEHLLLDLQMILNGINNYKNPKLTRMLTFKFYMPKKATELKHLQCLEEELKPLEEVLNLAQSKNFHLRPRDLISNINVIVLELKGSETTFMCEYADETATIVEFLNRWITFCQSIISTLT

PD-1 = PD-1 (human, UniProt Q15116 25-167, limits assumed); experiment: HTRF
Sequence of PD-1 (Q15116 25-167 limits assumed): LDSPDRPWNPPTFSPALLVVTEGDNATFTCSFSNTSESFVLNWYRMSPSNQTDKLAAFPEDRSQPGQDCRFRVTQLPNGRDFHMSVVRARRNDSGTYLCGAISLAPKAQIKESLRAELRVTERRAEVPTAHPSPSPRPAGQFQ

human IL-2 [2] = molecular target: T3, human IL-2; experiment: HTRF
[3] = molecular target: T1, LRRC15-hFc (Sino Biologicals, …); experiment: ELISA (Example 33): cell-free expressed scFv on LRRC15; x axis Log (concentration, nM)
[4] = molecular target: PDL1-hFc-Avi (Acro Biosystems, PDL-H82F2) (UniProt Q9NZQ7 19-238, biotinylated); experiment: ELISA: scFv captured at saturating level on anti-V5, titrated PDL1-hFc-Avi, streptavidin-HRP
AF33 = molecular target: T4, AF33; experiment: ELISA: scFv captured at saturating level on anti-V5, titrated biotinylated AF33 (IL-15 fusion), streptavidin-HRP
T4 construct: also called IL-15; IL15

Binder	PDL1 Binding (HTRF signal) (PD-L1 (Eu-labeled))	binding result [3]	further results
PDL1-IFN-R01-C08 (scFv, expressed cell-free as Myc tag + scFv + V5 tag) scFv: QVQLVQSGAEVKKPGASVKVSCKASGGTFSSYAISWVRQAPGQGLEWMGIIDPSVTYTRYAQKFQGRVTMTRDTSTSTVYMELSSLRSEDTAVYYCARSLFPTIFGVEVAFDIWGQGTLVTVSSASGGGGSGGGGSGGGGSHASDIQMTQSPSSLSASVGDRVTITCQASQDISNYLNWYQQKPGKAPKLLIYGASTLQSGVPSRFSGSGSGTDFTLTISSLQPEDFATYYCQQTYSTPITFGQGTKVEIK	2750	–	–
PDL1-IFN-R01-C11 (scFv, expressed cell-free as Myc tag + scFv + V5 tag) scFv: QVQLVQSGAEVKKPGASVKVSCKASGGTFSSYAISWVRQAPGQGLEWMGWMDANNGNTGYAQKFQGRVTMTRDTSTSTVYMELSSLRSEDTAVYYCARSLFPTIFGVEVAFDIWGQGTLVTVSSASGGGGSGGGGSGGGGSHASDIQMTQSPSSLSASVGDRVTITCRASQSVSSYLNWYQQKPGKAPKLLIYKASSLESGVPSRFSGSGSGTDFTLTISSLQPEDFATYYCQQSSSTPLSFGGGTKVEIK	3040	–	–
PDL1-IFN-R01-B12 (scFv, expressed cell-free as Myc tag + scFv + V5 tag) scFv: QVQLVQSGAEVKKPGASVKVSCKASGNTFTDYYMHWVRQAPGQGLEWMGWMNPNSGNTGYAQKFQGRVTMTRDTSTSTVYMELSSLRSEDTAVYYCARSLFPTIFGVEVAFDIWGQGTLVTVSSASGGGGSGGGGSGGGGSHASDIQMTQSPSSLSASVGDRVTITCQASQDISNYLNWYQQKPGKAPKLLIYAASSLQSGVPSRFSGSGSGTDFTLTISSLQPEDFATYYCQQSYSTPPTFGQGTRLEIK	2980	–	–
PDL1-IFN-R01-B09 (scFv, expressed cell-free as Myc tag + scFv + V5 tag) scFv: QVQLVQSGAEVKKPGASVKVSCKASGGTFTGYYMHWVRQAPGQGLEWMGWVNPNSGNTGYAQKFQGRVTMTRDTSTSTVYMELSSLRSEDTAVYYCARSLFPTIFGVEVAFDIWGQGTLVTVSSASGGGGSGGGGSGGGGSHASDIQMTQSPSSLSASVGDRVTITCQASQDISNYLNWYQQKPGKAPKLLIYAASSLQSGVPSRFSGSGSGTDFTLTISSLQPEDFATYYCQQSYSPPPTFGQGTKLEIK	1380	–	–
PDL1-IFN-R01-A11 (scFv, expressed cell-free as Myc tag + scFv + V5 tag) scFv: QVQLVQSGAEVKKPGASVKVSCKASGGTFSSYYMHWVRQAPGQGLEWMGWMNPNSGNTGYAQKFQGRVTMTRDTSTSTVYMELSSLRSEDTAVYYCARSLFPTIFGVEVAFDIWGQGTLVTVSSASGGGGSGGGGSGGGGSHASDIQMTQSPSSLSASVGDRVTITCQASQDITNYLNWYQQKPGKAPKLLIYAASSLESGVPSRFSGSGSGTDFTLTISSLQPEDFATYYCQQSYSIPITFGQGTRLEIK	2960	–	–
PD1-R07-A05 (scFv) scFv: QVQLVQSGAEVKKPGASVKVSCKASGYTFTTYYVHWVRQAPGQGLEWMGIINPSGGSTSYAQNFQGRVTMTRDTSTSTVYMELSSLRSEDTAVYYCASGWDVWGQGTTVTVSSASGGGGSGGGGSGGGGSHASEIVMTQSPATLSVSPGERATLSCRASQSVNTYLAWYQQKPGQAPRLLIYGASTRATGIPARFSGSGSGTEFTLTISSLQSEDFAVYYCQQYGSSPVTFGQGTRLEIK	–	–	IL2RB Blocking (HTRF signal) (human IL-2 [1]): 1730; PD1 Binding (HTRF signal) (PD-1): 653; IL2 Binding (HTRF signal) (human IL-2 [2]): 19
i47_A12 (scFv) scFv: MSTSTQVQLVQSGAEVKKPGSSVKVSCKASGYTFINNDINWVRQAPGQGLEWMGGTIPIFGVHIYAQKFQGRVTITADESTSTAYMELSSLRSEDTAVYYCVSSVGAGAYYYYGMDVWGQGTLVTVSSASGGGGSGGGGSGGGGSHASDIQMTQSPSSLSASVGDRVTITCQASQDISNYLNWYQQKPGKAPKLLIYAASSLQSGVPSRFSGSGSGTDFTLTISSLQPEDFATYYCQQSYSLPYTFGQGTRLEIKRAAAGSGSEQKLISEEDLGKPIPNPLLGLDST	–	binds	–
AF635 (scFv) scFv: MSTSTEQKLISEEDLQVQLVQSGAEVKKPGASVKVSCKASGYTFTGYYIHWVRQAPGQGLEWMGIINPSGGSTRYAQKFQGRVTMTRDTSTSTVYMELSSLRSEDTAVYYCARSLFPTIFGVEVAFDIWGQGTLVTVSSASGGGGSGGGGSGGGGSHASDIQMTQSPSSLSASVGDRVTITCRASQSIRTYLNWYQQKPGKAPKLLIYSASNLQSGVPSRFSGSGSGTDFTLTISSLQPEDFATYYCQQANSFPFTFGPGTKVDIKGKPIPNPLLGLDST	–	–	binding result [4]: binds; binding result (AF33): binds
A03 (scFv) scFv: MSTSTQVQLVQSGAEVKKPGASVKVSCKASGYTFTGYYMHWVRQAPGQGLEWMGWMDPNNDDADYAQRFQGRVTMTRDTSTSTVYMELSSLRSEDTAVYYCASLAAAGPYYYYGMDVWGQGTLVTVSSASGGGGSGGGGSGGGGSHASDIQMTQSPSSLSASVGDRVTITCRASQSINNYLNWYQQKPGKAPKLLIYGASNLETGVPSRFSGSGSGTDFTLTISSLQPEDFATYYCQQSYGTPLTFGGGTKVEIKRAAAGSGSEQKLISEEDLGKPIPNPLLGLDST	–	binds	–
B07 (scFv) scFv: MSTSTQVQLVQSGAEVKKPGASVKVSCKASGYTFTGYYMHWVRQAPGQGLEWMGWMDPNNDDADYAQRFQGRVTMTRDTSTSTVYMELSSLRSEDTAVYYCASLAAAGPYYYYGMDVWGQGTLVTVSSASGGGGSGGGGSGGGGSHASDIQMTQSPSSLSASVGDRVTITCQASQDISNYLNWYQQKPGKAPKLLIYGASILEAGVPSRFSGSGSGTDFTLTISSLQPEDFATYYCQQSYSAPITFGQGTRLEIKRAAAGSGSEQKLISEEDLGKPIPNPLLGLDST	–	binds	–
i47_A11 (scFv) scFv: MSTSTQVQLVQSGAEVKKPGSSVKVSCKASGYTFTSYDINWVRQAPGQGLEWMGTINPSDGDTTYAQKFQGRVTITADESTSTAYMELSSLRSEDTAVYYCARVGGWGIYYYYGMDVWGQGTLVTVSSASGGGGSGGGGSGGGGSHASDIQMTQSPSSLSASVGDRVTITCRASQSINSWLAWYQQKPGKAPKLLIYAASSLQSGVPSRFSGSGSGTDFTLTISSLQPEDFATYYCQQTYTVPFSFGQGTKLEIKRAAAGSGSEQKLISEEDLGKPIPNPLLGLDST	–	binds	–
Anti-IFN control (SEQ ID NO: 30) (scFv, control scFv; also called Anti-IFNα control) scFv: EVQLVESGGGLVQPGGSLRLSCATSGYTFTEYIIHWVRQAPGKGLEWVASINPDYDITNYNQRFKGRFTISLDKSKRTAYLQMNSLRAEDTAVYYCASWISDFFDYWGQGTLVTVSSASGGGGSGGGGSGGGGSHASDIQMTQSPSSLSASVGDRVTITCRASQSVSTSSYSYMHWYQQKPGKAPKVLISYASNLESGVPSRFSGSGSGTDFTLTISSLQPEDFATYYCQHSWGIPRTFGQGTKVEIK	416	–	–
PDL1-IFN-R01-A06 (scFv, expressed cell-free as Myc tag + scFv + V5 tag) scFv: QVQLVQSGAEVKKPGASVKVSCKASGGTFSSYAISWVRQAPGQGLEWVGWMDPKSGNTGYAQKFQGRVTMTRDTSTSTVYMELSSLRSEDTAVYYCARSLFPTIFGVEVAFDIWGQGTLVTVSSASGGGGSGGGGSGGGGSHASDIQMTQSPSSLSASVGDRVTITCQASQDINNYLNWYQQKPGKAPKLLIYKASSLEPGVPSRFSGSGSGTDFTLTISSLQPEDFATYYCQKSNDVPFTFGQGTKVEIK	2780	–	–
